This data set in a line: soluble on expression in E. coli; label from the status in PepcDB or PDB records.
For “MPGPILKKCFNCRVALPEDAINTAQCQKCQKNEAKYGKPGTCQYCKLNAAFHDQKCVWCSHAERKFGNPFPCANCKLSCAFPRRESDKVEGAALLCRLCILQARHTNQTVVAGIPVPPEKPERSGEGSSTEQRDRDHRQHRPTSHHHRDHKDHHRRDDKHHHRDSNHRHAHKRRHQEEPNNNSNNGTSSSGGAPPLVPNNENGNGFPPFGDRDPGESMVKQQKMEDEIRRLKTLLAEKDQLIFDKDKQISNLKADQYNLDKKHRERVQQLIKEKEDSIRAIEQMRNSKSSKRN”, the “soluble on expression in E. coli” value is listed as “not soluble”.

On to “MVRPEDFNSLELDNSLTDGETVHEMMAHKAGLTYNDFNILPGFINFGVHDVSLETNITKDLKIKAPLVSSPMDTVTESGMAIVMALYGGIGIIHGNFPKPEDQAAEVLKVKRFKQGYVMQPHCLSRDSTAFDMIQIKKKYGYTGAPVTEDGRVGSKLIGMVTSRDFDFITMDVAGQKGTPISDTNDVTPTTPITRIMVSVDQLHLGHINDAPELSQKKLKEHRLGKLPIVNDNGELCALLCRSDLLKARDYPMASYDSKGQLLCGAAVNTRGESQYTVDRVVEAGVDVLIIDSSNGSSTYQISMLRYIKEKHPHVQVIAGNVVTRAQAKLLIDQGADGLRIGMGSGSICITQDVMAVGRAQGTAVYDVARYANQRGIPIVADGGIRDVGYITKAISLGASAVMMGGLLAATTEAPGEYFWGPGGVRVKKYRGMGSLDAMEAHASSQDRYFTAHVFFSILSYF”, for which the “soluble on expression in E. coli” value is given as “not soluble”.

In the case of “MGHHHHHHSHMEDSHKSTTSETAPQPGSAVQGAHISHIAQQVSSLSESEESQDSSDSIGSSQKAHGILARRPSYRKILKDLSSEDTRGRKGDGENSGVSAAVTSMSVPTPIYQTSSGQYIAIAPNGALQLASPGTDGVQGLQTLTMTNSGSTQQGTTILQYAQTSDGQQILVPSNQVVVQTASGDMQTYQIRTTPSATSLPQTVVMTSPVTLTSQTTKTDDPQLKREIRLMKNREAARECRRKKKEYVKCLENRVAVLENQNKTLIEELKTLKDLYSNKSV”, the “soluble on expression in E. coli” value is listed as “soluble”.

Take “MIATGDALNLLSKMTFKRLITLLKVFVSYQYSKITGNVVHPSVPYSIAIEPTTSCNLRCPECPSGLRSFTRPTGMLNIAMFSKIIDELYQQISYLIFYFQGEPYLNTSFLEMVKYASSKGIYTATSTNAHYLTDENARKTVESGLDRLIISIDGTTQEVYEQYRIGGSLEKVLEGTKNILAWKKKLHASTPHVIFQFLVVKPNQHQLKEVKKMAKELGVGEVRFKTAQIHDYENGSPLIPDIDKYARYRKNADNTYSIKNSLLNHCWKMWHSCVITWDGKIVPCCFDKDAHLVMGELKTNTFKEIWNSAPYIQFRKSLLKSRSEIDMCKNCTEGTTVWA”: the “soluble on expression in E. coli” value was “not soluble”.

As for “MNSGRPETMENLPALYTIFQGEVAMVTDYGAFIKIPGCRKQGLVHRTHMSSCRVDKPSEIVDVGDKVWVKLIGREMKNDRIKVSLSMKVVNQGTGKDLDPNNVIIE”, the “soluble on expression in E. coli” value is given as “soluble”.

With “MGSDKIHHHHHHGIGVNSSNRLGIDNFEFIRVLGKGSFGKVMLARVKETGDLYAVKVLKKDVILQDDDVECTMTEKRILSLARNHPFLTQLFCCFQTPDRLFFVMEFVNGGDLMFHIQKSRRFDEARARFYAAEIISALMFLHDKGIIYRDLKLDNVLLDHEGHCKLADFGMCKEGICNGVTTATFCGTPDYIAPEILQEMLYGPAVDWWAMGVLLYEMLCGHAPFEAENEDDLFEAILNDEVVYPTWLHEDATGILKSFMTKNPTMRLGSLTQGGEHAILRHPFFKEIDWAQLNHRQIEPPFRPRIKSREDVSNFDPDFIKEEPVLTPIDEGHLPMINQDEFRNFSYVSPELQP”, the “soluble on expression in E. coli” value was “not soluble”.

Regarding “MGSDKIHHHHHHMNKDLKAIKWFITTQILKDPFNPAYATFKVTSRCNLRCTFCSPSYYSGELGEGSTERVKKIIDNLRDSSIVVLSFEGGEPTYRPDILDLLEYAHDGSFYIMLTTNGYRLKDEDFLTKLADKIDFLHYSIDEYHWNVKELENLCRFRKYGLKVNVQTVVTRYNLYKLEEKVRKVAECGYKILAMPAVDYPNSKVKLAPDPYEFYKVLYDLKRKYGSTLNNSWGFINAIIGKVPKRVVSYAITIYPNGDLPYPDDINGEIVGNVAEEPLNKILQSSKVKELQQKMLENQAKFEYLHLQTASFNNIRDLASYVSEMLRWRFTGRA”, the “soluble on expression in E. coli” value is “not soluble”.

Regarding “MAHHHHHHMYAPFAAQEGNGGMFDFFFSAAASETLCASSAGSNSNNTGIGHGGGEAANGFNAASAGPLVENNNSNDDRVGRLNFDFASFFFQGGQSGAYDDSGLDAAGRGDDGSGADARRSEHYIQRGSADAADSTGKGVLPALGFFFPEDQVAPAAAGGSLILPPTSWCVESAAGADNRYSPPQVQPQNPAAVRETAASLKGDEAAHTVAPPGAALTVLKSDPTHIAPVDQTLVQRLPCEHASSSAMDHECSLAAALAAAPSSLGLLSDEESQRTTVPLSRTSDAEEAKCDETPTRLVAGNSCPEPEARDSSVAEGVAEEDAMPAPTHSRQPPPRVPVVSLPRSSHPPGAAPAGAVVTPTPPSPRQPPAPLTVSTSTPYRPEVPLLIGPAGHDATSVALSKAIGEAEEVWAHRLDMVPITCPERRDAEMGMSCSGFTPSSSSDAVFLAEVAQLQQQTARLTEESARSVTSLQVLTSDLLRILGPHAALSSFAGEQYAGTPLVHLPWALIAVLEGLLNDDADAEEKAEGQLVAPRPSSEGVESGSSGVHDA”, the “soluble on expression in E. coli” value is “not soluble”.

Regarding “MVSVSEIRKAQRAEGPATILAIGTANPANCVEQSTYPDFYFKITNSEHKTELKEKFQRMCDKSMIKRRYMYLTEEILKENPNVCEYMAPSLDARQDMVVVEVPRLGKEAAVKAIKEWGQPKSKITHLIVCTTSGVDMPGADYQLTKLLGLRPYVKRYMMYQQGAFAGGTVLRLAKDLAENNKGARVLVVCSEVTAVTFRGPSDTHLDSLVGQALFGDGAAALIVGSDPVPEIEKPIFEMVWTAQTIAPDSEGAIDGHLREAGLTFHLLKDVPGIVSKNITKALVEAFEPLGISDYNSIFWIAHPGGPAILDQVEQKLALKPEKMNATREVLSEYGNMSSACVLFILDEMRKKSTQNGLKTTGEGLEWGVLFGFGPGLTIETVVLRSVAI”, the “soluble on expression in E. coli” value is reported as “soluble”.

Regarding “MRKIKIGLALGSGAARGWSHIGVINALKKVGIEIDIVAGCSIGSLVGAAYACDRLSALEDWVTSFSYWDVLRLMDLSWQRGGLLRGERVFNQYREIMPETEIENCSRRFAAVATNLSTGRELWFTEGDLHLAIRASCSIPGLMAPVAHNGYWLVDGAVVNPIPISLTRALGADIVIAVDLQHDAHLMQQDLLSFNVSEENSENGDSLPWHARLKERLGSITTRRAVTAPTATEIMTTSIQVLENRLKRNRMAGDPPDILIQPVCPQISTLDFHRAHAAIAAGQLAVERKMDELLPLVRTNI”, the “soluble on expression in E. coli” value is reported as “not soluble”.

In the case of “MIWIINISWMHSIFDFISMLINRNHFSKWSISNGRHVSFCNWVFTYTNICSKSFNYRRRSCFKNISISYPFCRIHSIFNKFFTYFIISNCSCPTHRLFCIWRSLFTRSLEHHHHHH”, the “soluble on expression in E. coli” value is “not soluble”.

For the sequence “MDRRSQILTIAGHLFSQRGYHATSMRELARHLNLQGGSLYAHIQSKEELLLEVVRQAAERFQKVLEELPSGDPVTRMKALVKGHLRVIAEELPRATVFFHEWKHLSPPLLEEAKALRRRYEEGVQAVVEEGVRAGVFRVENVRLATLFVLSALNWTYQWYRPDGPLSLEALAEAYAELVLKALGVAASPEGERREEGGEDGEA”, the “soluble on expression in E. coli” value was “soluble”.

Take “MGSDKIHHHHHHMKASIEQLEPYVPEKPLATLQAELGLTELVRLSANENPYGTSPKVATAVKNWDFTQSNRYPDADAQELRQAVAQQQGIDPNSIVFSVGLDEMIVMLSRTFLATNDQVLVSAPTFSEYGLHAEIEGGQLISVPTLPNDHVNFEGLMKAITPHVKMVWLCNPNNPTGTVESLAAIEAFVQQVPPETMVLIDEAYIDFTPGAAQVTAMQLPAKYPNVVVMRTFSKAYGLANFRIGYAVFNTKYAATMQTIRLPYNVNSLAQVAALAAIDDPNFVKQTVQKNATERAKWMAFFDDQGVTYDQSGANFIFFKYPSATQLADYLVHHGYLIRTGLRPGWLRLTVGTANDNQQLQQLIREFKA”: the “soluble on expression in E. coli” value was “not soluble”.

On to “MGSDKIHHHHHHMGKVYVIGNFKGGVGKTKTVTMLAYESALQLGRKTLVIDLDPQGNATRVLAKTGDLAEITYTVTEAFQEGSLEPAITNISENLDLIPANTAFRNLTKILMTKFPSNEFDQINYLNTLLKPLKEKYDAIYIDVPPTISDFSDNAMLAADYCIIVLQTQELSLDGAQTYIAYMQYLADTYDNDLQVLGIIPCMLRPGGRVDNKVLEQAKELYGGNVLNTVVKYQERLKVYDVEGIKISHNYTGKADGWDVKAHKVFIDVLNELDQHQLVLEELEG”, for which the “soluble on expression in E. coli” value is given as “not soluble”.

In the case of “SCRRAFDLYFVLDKSGSVANNWIEIYNFVQQLAERFVSPEMRLSFIVFSSQATIILPLTGDRGKISKGLEDLKRVSPVGETYIHEGLKLANEQIQKAGGLKTSSIIIALTDGKLDGLVPSYAEKEAKISRSLGASVYCVGVLDFEQAQLERIADSKEQVFPVKGGFQALKGIINSILAQSC”, the “soluble on expression in E. coli” value is on record as “soluble”.

For “RMNVFDEHHFRVILDYAHNADGVRCMSELASKLEVKGKRITVLAGPGDRRDEDIVNIAKAAAGHFDIYICKADDNRRGRGVNEVPELLASSLRAEGIDESQIYCISDEVEAINKGLELANTDDLLMIFGDAITRCWKQIINFNSGHEPEQE”, the “soluble on expression in E. coli” value is “not soluble”.

In the case of “MGSDKIHHHHHHMKIKCIITDDEPIARKGLRGYIEKVDFLTLTGECEDAVQLNTILKTQEIDLLFLDIEMPEMTGIELLSNLTNPPKVIIVSAYEQYALKGYEFNVVDYLLKPVSFDRFIKSVNKIYDLLQTEQKEKNDYIFVKSNKLLKKILFKDILYIESMENYVVIQTVSCKEVVYTTLKQLNDSLPKDVFQQTHRSYIVNLEKVTAIDGNQLTLSSYKIPVARTFRDSIFNLILNNRLIIKS”, the “soluble on expression in E. coli” value is “not soluble”.

With “MSVEIESIEHELEESIASLRQAGVRITPQRQAILRYLISSHTHPTADEIYQALSPDFPNISVATIYNNLRVFKDIGIVKELTYGDSSSRFDFNTHNHYHIICEQCGKIVDFQYPQLNEIERLAQHMTDFDVTHHRMEIYGVCKECQDK”, the “soluble on expression in E. coli” value is recorded as “not soluble”.

For “MPDEIYLFTPKGKIFALPKNSTALDFAYAVHTDIGNHAVTSRVDKQLMPLRTKLSSGQTVEIITARSALPKPQWLEHHHHHH”, the “soluble on expression in E. coli” value is reported as “not soluble”.

In the case of “MPVTNMAELDAMIARVKKAQEEFATYSQEQVDKIFRAASLAANQARIPLAQQAVEESGMGIVEDKVIKNHFASEFIYNKYKDEQTCGILEEDDNLGTMTIAEPVGIICGIVPTTNPTSTAIFKSLISLKTRNGIIFSPHPRAKNSTNDAAKLVLDAAVAAGAPKDIIGWIDQPSVELSNALMKHDDIALILATGGPGMVKAAYSSGKPAIGVGAGNVPVVIDETADIKRAVASVLMSKTFDNGVVCASEQAVIVVDEVYDEVKERFASHKAHVLSKTDADKVRKVLLIDGALNAKIVGQPATAIAEMAGVKVPADTKVLIGEGLGKVSYDDAFAHEKLSPTLGMFRADNFEDAVAQAVTMVEIGGIGHTSGLYTNQDVNADRIRYFGDKMKTARILINIPTTHGGIGDLYNFNVAPSLTLGCGSWGGNSISENVGPKHLINKKTVAKRAENM”, the “soluble on expression in E. coli” value is reported as “soluble”.

On to “MRIALLVKQARLQQGVRQIDLAERLGITLRTFRRIEAGSADGVSLRDFMLVVWGLGVSERLFQGLRDDESFSVEQLEAADRKRVRLPRNRPEDF”, for which the “soluble on expression in E. coli” value is listed as “not soluble”.

The values above are taken from the DeepSol protein solubility set.
